Measurements reported in US20100075897A1, “METHOD FOR S[…] BIOACTIVE PEPTIDES AND APPLICATION THEREOF” (JINAN UNIVERSITY, priority 2008, published 2010).
Like-named read-outs stand apart in the source and are kept apart here. Ends that are not written are not given here.

Key:
GLP-1 receptor [1] = conditions: CHO/GLP-1R, competition with 125I-GLP-1; fusion polypeptides after treatment with thrombin and DPP IV; read-out: Receptor binding affinity IC50
Procedure: (§1) The actual experimental steps were extracted from method as described by Montrose-Rafizadeh with proper modification as following:
(§2) (2) After cultured, removing supernatant, washing cells with cold PBS for three times, and then mixing with 0.5 mL 0.5 mol/L NaOH and 0.1% (mg/mL) SDS for 10 minutes. Irradiation of the cell lysis was determined by Apec-Series […] (ICN Biomedicals, Inc., Costa Mesa, Calif.).

GLP-1 receptor [2] = type: cell-based; conditions: CHO/GLP-1R, 30 minutes; GLP-1 released from ABP-LK-GLP; read-out: cAMP production EC50
Procedure: Samples were rotated and then centrifuged for 5 minutes (2000 g, 4° C.) to acquire precipitation. Supernatant was removed by vacuum and then the precipitation was dissolved into 300 μL of […] Tris buffer (pH7.5, containing […] EDTA), added with sodium bicarbonate (0.15 mg/mL) and zinc sulfate (0.15 mg/mL), followed by being placed on ice for 15 minutes. Centrifugation was performed at 2000 g at 4° C. for […] to remove precipitation and obtain a supernatant. The supernatant was analyzed with [^3H] cAMP competition assay kit (Amersham Biotech, QC).

GLP-1 receptor [3] = target: T1, GLP-1 receptor; test: cell-based or functional assay
T1 chain: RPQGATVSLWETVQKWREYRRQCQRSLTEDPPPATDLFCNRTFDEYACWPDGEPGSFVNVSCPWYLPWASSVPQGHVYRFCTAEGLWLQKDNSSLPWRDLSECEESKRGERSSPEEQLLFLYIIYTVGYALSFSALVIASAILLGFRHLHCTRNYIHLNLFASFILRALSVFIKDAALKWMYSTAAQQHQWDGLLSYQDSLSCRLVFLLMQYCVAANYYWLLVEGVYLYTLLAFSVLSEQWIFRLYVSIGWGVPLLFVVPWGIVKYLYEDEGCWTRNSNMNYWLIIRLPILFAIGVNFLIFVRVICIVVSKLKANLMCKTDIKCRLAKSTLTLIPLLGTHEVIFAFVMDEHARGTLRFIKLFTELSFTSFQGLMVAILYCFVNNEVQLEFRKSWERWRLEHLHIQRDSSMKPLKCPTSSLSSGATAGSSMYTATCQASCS

GLP-1 receptor [4] = target: T1, GLP-1 receptor; test: competition with 125I-GLP-1 on CHO/GLP-1R cells; polypeptide digested with thrombin and DPP IV first
Procedure: as §1, §2

GLP-1 receptor [5] = target: T1, GLP-1 receptor; test: competition with 125I-GLP-1 on CHO/GLP-1R cells
human serum albumin [6] = target: T2, human serum albumin (human, UniProt P02768 25-609); test: phage ELISA on plate-coated HSA, sample row, dilution column 2 of 12
T2 construct: Bought protein; coated on plates (ELISA) or coupled to a CM5 chip (SPR); also called HSA; human albumin

human serum albumin [7] = target: T2, human serum albumin; test: phage ELISA on plate-coated HSA, Table 3 absorbance (sample minus blank), dilution column 3 of 12
human serum albumin [8] = target: T2, human serum albumin; test: phage ELISA on plate-coated HSA, Table 3 absorbance (sample minus blank), dilution column 1 of 12

T2 sequence (P02768 25-609 limits assumed): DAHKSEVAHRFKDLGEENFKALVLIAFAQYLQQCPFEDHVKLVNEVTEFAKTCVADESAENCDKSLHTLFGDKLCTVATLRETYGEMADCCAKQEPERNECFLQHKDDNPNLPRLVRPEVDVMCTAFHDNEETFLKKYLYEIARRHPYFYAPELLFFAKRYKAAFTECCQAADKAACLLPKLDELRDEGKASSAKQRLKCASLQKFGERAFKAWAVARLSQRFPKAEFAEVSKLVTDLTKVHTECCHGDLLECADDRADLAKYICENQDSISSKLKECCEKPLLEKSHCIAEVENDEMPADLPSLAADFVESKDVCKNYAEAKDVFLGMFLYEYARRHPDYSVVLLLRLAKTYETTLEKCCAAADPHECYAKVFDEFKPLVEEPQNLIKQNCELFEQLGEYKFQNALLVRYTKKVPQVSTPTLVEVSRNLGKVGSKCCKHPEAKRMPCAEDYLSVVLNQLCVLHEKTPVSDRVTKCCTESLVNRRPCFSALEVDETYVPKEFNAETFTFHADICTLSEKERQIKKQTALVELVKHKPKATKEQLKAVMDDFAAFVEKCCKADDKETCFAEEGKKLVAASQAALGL

LPHSHRAHSLPPFNPRPA HAEGTFTSDVSSYLEGQAAKEFIAWLVKGRG [PA6.2]
IC50 (GLP-1 receptor [1]): 2.2 ± 0.7 nM | EC50 (GLP-1 receptor [2]): 23 ± 2.4 nM

LPHSHRAHSLPPFNPRPP HAEGTFTSDVSSYLEGQAAKEFIAWLVKGRG [PP6.2]
IC50 (GLP-1 receptor [1]): 2.3 ± 0.8 nM | EC50 (GLP-1 receptor [2]): 21 ± 2.1 nM

PDICLPRWGCLWEFNPRGA HAEGTFTSDVSSYLEGQAAKEFIAWLVKGRG [DP3.1]
IC50 (GLP-1 receptor [1]): 2.1 ± 0.5 nM | EC50 (GLP-1 receptor [2]): 23 ± 2 nM

PLPHSHRAHSLPPFNPRGP HAEGTFTSDVSSYLEGQAAKEFIAWLVKGRG [DP6.2]
IC50 (GLP-1 receptor [1]): 2.1 ± 0.8 nM | EC50 (GLP-1 receptor [2]): 23 ± 2.1 nM

PNICLPRWGCLWDFNPRGA HAEGTFTSDVSSYLEGQAAKEFIAWLVKGRG [DP4.1]
IC50 (GLP-1 receptor [1]): 2.5 ± 0.8 nM | EC50 (GLP-1 receptor [2]): 19 ± 2.1 nM

PSSLLHWTHKIPALFNPRGS HAEGTFTSDVSSYLEGQAAKEFIAWLVKGRG [DP8.3]
IC50 (GLP-1 receptor [1]): 2.5 ± 0.6 nM | EC50 (GLP-1 receptor [2]): 23 ± 2.2 nM

B1: DP8.3 fusion polypeptide (peptide)
peptide: PSSLLHWTHKIPALFNPRGSHAEGTFTSDVSSYLEGQAAKEFIAWLVKGRG
notes: ABP-LK-GLP fusion polypeptide, copied as printed with PSS at the N-terminus (DP8.1 and DP8.2 have PS); also called ABP-LK-GLP
cAMP production EC50 (GLP-1 receptor [3]): 23 nM | IC50 (GLP-1 receptor [4]): 2.5 nM

FNPRHAEGTFTSDVSSYLEGQAAKEFIAWLVKGRG (GLP-1(7-37) with N-terminal FNPR) [FN-GLP]
cAMP production EC50 (GLP-1 receptor [3]): > 1000 nM | IC50 (GLP-1 receptor [5]): 450 nM

LVPRHAEGTFTSDVSSYLEGQAAKEFIAWLVKGRG (GLP-1(7-37) with N-terminal LVPR) [LV-GLP]
cAMP production EC50 (GLP-1 receptor [3]): > 1000 nM | IC50 (GLP-1 receptor [5]): 467 nM

B2: M6.1 fusion polypeptide (peptide)
peptide: LPHSHRAHSLPPFNPRGAHAEGTFTSDVSSYLEGQAAKEFIAWLVKGRG
notes: ABP-LK-GLP fusion polypeptide; also called ABP-LK-GLP
cAMP production EC50 (GLP-1 receptor [3]): 24 nM | IC50 (GLP-1 receptor [4]): 2.2 nM

B3: M6.2 fusion polypeptide (peptide)
peptide: LPHSHRAHSLPPFNPRGPHAEGTFTSDVSSYLEGQAAKEFIAWLVKGRG
notes: as for B2
cAMP production EC50 (GLP-1 receptor [3]): 21 nM | IC50 (GLP-1 receptor [4]): 2.3 nM

B4: PA6.2 fusion polypeptide (peptide)
peptide: LPHSHRAHSLPPFNPRPAHAEGTFTSDVSSYLEGQAAKEFIAWLVKGRG
notes: as for B2
cAMP production EC50 (GLP-1 receptor [3]): 23 nM | IC50 (GLP-1 receptor [4]): 2.2 nM

B5: PP6.2 fusion polypeptide (peptide)
peptide: LPHSHRAHSLPPFNPRPPHAEGTFTSDVSSYLEGQAAKEFIAWLVKGRG
notes: as for B2
cAMP production EC50 (GLP-1 receptor [3]): 21 nM | IC50 (GLP-1 receptor [4]): 2.3 nM

B6: DP4.3 fusion polypeptide (peptide)
peptide: PNICLPRWGCLWDFNPRGSHAEGTFTSDVSSYLEGQAAKEFIAWLVKGRG
notes: as for B2
cAMP production EC50 (GLP-1 receptor [3]): 18 nM | IC50 (GLP-1 receptor [4]): 2.1 nM

B7: DP3.3 fusion polypeptide (peptide)
peptide: PDICLPRWGCLWEFNPRGSHAEGTFTSDVSSYLEGQAAKEFIAWLVKGRG
notes: as for B2
cAMP production EC50 (GLP-1 receptor [3]): 21 nM | IC50 (GLP-1 receptor [4]): 2.3 nM

B8: DP4.1 fusion polypeptide (peptide)
peptide: PNICLPRWGCLWDFNPRGAHAEGTFTSDVSSYLEGQAAKEFIAWLVKGRG
notes: as for B2
cAMP production EC50 (GLP-1 receptor [3]): 19 nM | IC50 (GLP-1 receptor [4]): 2.5 nM

B9: DP3.1 fusion polypeptide (peptide)
peptide: PDICLPRWGCLWEFNPRGAHAEGTFTSDVSSYLEGQAAKEFIAWLVKGRG
notes: as for B2
cAMP production EC50 (GLP-1 receptor [3]): 23 nM | IC50 (GLP-1 receptor [4]): 2.1 nM

B10: DP3.2 fusion polypeptide (peptide)
peptide: PDICLPRWGCLWEFNPRGPHAEGTFTSDVSSYLEGQAAKEFIAWLVKGRG
notes: as for B2
cAMP production EC50 (GLP-1 receptor [3]): 19 nM | IC50 (GLP-1 receptor [4]): 2.3 nM

B11: Phage ID NO. 6 (M13 phage displaying the peptide of SEQ ID NO. 6, LPHSHRAHSLPP) (peptide)
peptide: LPHSHRAHSLPP
modifications: also: displayed on M13 phage coat protein
notes: Tested as whole phage particles, not as free peptide; not shown: not described
absorbance at 405 nm (human serum albumin [6]): 0.09 | absorbance at 405 nm (human serum albumin [7]): 0.05

B12: M3.1 fusion polypeptide (peptide)
peptide: DICLPRWGCLWEFNPRGAHAEGTFTSDVSSYLEGQAAKEFIAWLVKGRG
notes: as for B2
cAMP production EC50 (GLP-1 receptor [3]): 22 nM | IC50 (GLP-1 receptor [4]): 2.2 nM

B13: M4.3 fusion polypeptide (peptide)
peptide: NICLPRWGCLWDFNPRGSHAEGTFTSDVSSYLEGQAAKEFIAWLVKGRG
notes: as for B2
cAMP production EC50 (GLP-1 receptor [3]): 19 nM | IC50 (GLP-1 receptor [4]): 2.2 nM

B14: M3.2 fusion polypeptide (peptide)
peptide: DICLPRWGCLWEFNPRGPHAEGTFTSDVSSYLEGQAAKEFIAWLVKGRG
notes: as for B2
cAMP production EC50 (GLP-1 receptor [3]): 21 nM | IC50 (GLP-1 receptor [4]): 2.1 nM

B15: M4.2 fusion polypeptide (peptide)
peptide: NICLPRWGCLWDFNPRGPHAEGTFTSDVSSYLEGQAAKEFIAWLVKGRG
notes: as for B2
cAMP production EC50 (GLP-1 receptor [3]): 21 nM | IC50 (GLP-1 receptor [4]): 2.2 nM

B16: M8.1 fusion polypeptide (peptide)
peptide: SLLHWTHKIPALFNPRGAHAEGTFTSDVSSYLEGQAAKEFIAWLVKGRG
notes: as for B2
cAMP production EC50 (GLP-1 receptor [3]): 24 nM | IC50 (GLP-1 receptor [4]): 2.2 nM

B17: M8.3 fusion polypeptide (peptide)
peptide: SLLHWTHKIPALFNPRGSHAEGTFTSDVSSYLEGQAAKEFIAWLVKGRG
notes: as for B2
cAMP production EC50 (GLP-1 receptor [3]): 21 nM | IC50 (GLP-1 receptor [4]): 2.2 nM

B18: M8.2 fusion polypeptide (peptide)
peptide: SLLHWTHKIPALFNPRGPHAEGTFTSDVSSYLEGQAAKEFIAWLVKGRG
notes: as for B2
cAMP production EC50 (GLP-1 receptor [3]): 21 nM | IC50 (GLP-1 receptor [4]): 1.9 nM

B19: Phage ID NO. 1 (M13 phage displaying the peptide of SEQ ID NO. 1, NVCLPKWGCLWE) (peptide)
peptide: NVCLPKWGCLWE
modifications: not fully specified (bridges); cysteine pairing not given here; also: displayed on M13 phage coat protein
notes: as for B11
absorbance at 405 nm (human serum albumin [6]): 0.09 | absorbance at 405 nm (human serum albumin [8]): 0.04

B20: DP8.1 fusion polypeptide (peptide)
peptide: PSLLHWTHKIPALFNPRGAHAEGTFTSDVSSYLEGQAAKEFIAWLVKGRG
notes: as for B2
cAMP production EC50 (GLP-1 receptor [3]): 24 nM | IC50 (GLP-1 receptor [4]): 2.2 nM

B21: DP8.2 fusion polypeptide (peptide)
peptide: PSLLHWTHKIPALFNPRGPHAEGTFTSDVSSYLEGQAAKEFIAWLVKGRG
notes: as for B2
cAMP production EC50 (GLP-1 receptor [3]): 22 nM | IC50 (GLP-1 receptor [4]): 1.9 nM

B22: Phage ID NO. 2 (M13 phage displaying the peptide of SEQ ID NO. 2, DVCLPQWGCLWG) (peptide)
peptide: DVCLPQWGCLWG
modifications: not fully specified (bridges); cysteine pairing not given here; also: displayed on M13 phage coat protein
notes: as for B11
absorbance at 405 nm (human serum albumin [7]): 0.04

B23: DP6.1 fusion polypeptide (peptide)
peptide: PLPHSHRAHSLPPFNPRGAHAEGTFTSDVSSYLEGQAAKEFIAWLVKGRG
notes: as for B2
cAMP production EC50 (GLP-1 receptor [3]): 23 nM | IC50 (GLP-1 receptor [4]): 2 nM

B24: DP6.2 fusion polypeptide (peptide)
peptide: PLPHSHRAHSLPPFNPRGPHAEGTFTSDVSSYLEGQAAKEFIAWLVKGRG
notes: as for B2
cAMP production EC50 (GLP-1 receptor [3]): 23 nM | IC50 (GLP-1 receptor [4]): 2.1 nM
